Test results taken from PMC8233224, “Crystal structure of a homotrimeric verrucomicrobial exo-β-1,4-mannosidase active in the hindgut of the wood-feeding termite Reticulitermes flavipes” (Journal of Structural Biology: X, 2021).
Where “and” joins values, the source holds several entries; their conditions need not be identical. Identical values can stand only once.

Columns and labels:
[1] = system: T1, O=[N+]([O-])c1ccc(O[C@@H]2O[C@H](CO)[C@@H](O)[C@H](O)[C@@H]2O)cc1; assay: purified protein; format: biochemical, Opitutaceae bacterium; details: 50 mM sodium phosphate pH 6.0, 40 °C, 10 min, apparent
T1 construct: full length, 594 residues, no secretion signal; C-terminal non-cleavable His6 tag (pNIC-CH2), E. coli BL21(DE3) T1R; synthetic gene; ESI-MS 66824 g/mol; homotrimer ~200 kDa; N-terminus MTIDSSGY from primer

[2] = target: exo-β-1,4-mannosidase from Opitutaceae bacterium strain TAV5 (Op5Man5) (Opitutaceae bacterium strain TAV5); assay: cross-linking; glutaraldehyde 0.4% w/v, protein 0.2 mg/ml, 37 °C, 0 to 60 min, SDS-PAGE (15%)
[3] = target: exo-β-1,4-mannosidase from Opitutaceae bacterium strain TAV5 (Op5Man5) (Opitutaceae bacterium strain TAV5); assay: SEC; Superdex 200 10/300 GL, 20 mM HEPES pH 7.5 with 300 mM NaCl, 4 °C, standard curve of reference proteins
[4] = target: exo-β-1,4-mannosidase from Opitutaceae bacterium strain TAV5 (Op5Man5) (Opitutaceae bacterium strain TAV5); assay: crystal structure; crystals from 0.1 M phosphorus citrate pH 4.2, 30% ethanol, 5% PEG 1000; space group P212121; 2.2 Å
[5] = target: exo-β-1,4-mannosidase from Opitutaceae bacterium strain TAV5 (Op5Man5) (Opitutaceae bacterium strain TAV5); assay: SEC; Superdex 200 10/300 GL, 20 mM Tris-HCl pH 8.0 and 8.5 with 300 mM NaCl, 4 °C, standard curve of reference proteins
[6] = target: exo-β-1,4-mannosidase from Opitutaceae bacterium strain TAV5 (Op5Man5) (Opitutaceae bacterium strain TAV5); assay: cryo-EM structure; single particle cryo-EM at pH 7.5 of pooled SEC fractions with the trimeric species, 0.12 mg/ml; 3.7 Å map
[7] = target: exo-β-1,4-mannosidase from Opitutaceae bacterium strain TAV5 (Op5Man5) (Opitutaceae bacterium strain TAV5); assay: SEC; Superdex 200 10/300 GL, 20 mM buffer with 300 mM NaCl, pH 5.5-6.5 (sodium acetate pH 5.5; MES pH 6.0 and 6.5), 4 °C, standard curve of reference proteins

stoichiometry N [2] | stoichiometry N [3] | stoichiometry N [4] | stoichiometry N [5] | stoichiometry N [6] | stoichiometry N [7] | Substance | Km [1] [mM] | kcat [1] [s⁻¹] | kcat/Km [1] [M⁻¹ s⁻¹]
 |  |  |  |  |  | Op5Man5 (Opitutaceae bacterium) | 1.0 ± 0.13 | 239 ± 7.7 | 239000 ± 7700
3 and 6 | 3 and 6 | 3 | 3 | 3 | 3 | exo-β-1,4-mannosidase from Opitutaceae bacterium strain TAV5 (Op5Man5) (enzyme) |  |  | 
